Data reported in US20130096281A1.
pKd: −log10 of the molar value.

Target: [Ag] (UniProt P04626)
Assay: yeast display titration (flow cytometry); Lip2prepro leader, Sag1p fusion

pKd: 8.60
Substance: preproA1-Herceptin scFv
